Experimental data taken from PMC6681757.

How the values were obtained:
[1] = molecular target: isolated bovine cardiac native thin filaments (NTFs) (bovine) (UniProt Q3ZC07)
[2] = molecular target: isolated bovine cardiac native thin filaments (NTFs) (bovine) (UniProt Q3ZC07); assay: co-sedimentation; high-velocity cosedimentation with isolated bovine cardiac NTFs, absence of calcium (pCa 9)
[3] = molecular target: myosin S2Δ, the first 126 amino acids of myosin S2 (cardiac myosin); assay: MST; C1mC2 species (or native full-length cMyBP-C) titrated against myosin S2Δ; normalized MST curves; conditions in SI Appendix
[4] = molecular target: myosin S2Δ, the first 126 amino acids of myosin S2 (cardiac myosin)
[5] = molecular target: isolated bovine cardiac native thin filaments (NTFs) (bovine) (UniProt Q3ZC07); assay: co-sedimentation; high-velocity cosedimentation with isolated bovine cardiac NTFs, presence of 32 μmol/L CaCl2 (pCa 4.5)

Substance | EC50 of activation of NTF-stimulated myosin S1 ATPase in the absence of calcium (pCa 9) [1] [μmol/L] | Kd [2] [µM] | Kd [3] [µM] | further results
C1mC2, recombinant fragment of rat cardiac myosin binding protein-C containing domains C1, the m-motif and C2, unphosphorylated (domain or fragment) | 1 | 20 | – | IC50 of inhibition of NTF-stimulated myosin S1 ATPase in the absence of calcium (pCa 9), [C1mC2] > 2 μmol/L [1]: 3 μmol/L; IC50 of inhibition of myosin S1-NTF ATPase during full calcium activation (pCa 4) [1]: 2 μmol/L; maximal inhibition of myosin S1-NTF ATPase during full calcium activation (pCa 4) [1]: 50%; EC50 of activation of thick filament structure (RLC BC probe orientation) in ventricular trabeculae, pCa 9 [4]: 10 μmol/L; KD of the high-affinity binding site [3]: 20.7 µM; KD of the low-affinity binding site [3]: > 400 µM
C1mC2-S288A, unphosphorylated (domain or fragment) | – | – | 20 | –
C1mC2 bis-phosphorylated by PKA on S288 and S279 (C1mC2-2P) (domain or fragment) | 5 | 20 | – | –

Further lines, with some results ahead:

EC50 of activation of NTF-stimulated myosin S1 ATPase in the absence of calcium (pCa 9) [1] [μmol/L] | Kd [2] [µM] | Kd [3] [µM] | Substance | further results
2 | 20 | 30 | C1mC2 monophosphorylated on S288 (C1mC2-1P) (domain or fragment) | –
– | 20 | 30 | C1mC2 monophosphorylated on S308 by PKCε (domain or fragment) | –
– | – | 24.2 | λ-protein phosphatase–treated native full-length cMyBP-C isolated from rat ventricular tissue (from UniProt P56741 1-1274) (natural protein) | –
– | 60 | – | C1mC2 tris-phosphorylated by PKA on S288, S279 and S313 (C1mC2-3P) (domain or fragment) | Kd [5]: 60 µM
